Each block holds one compound with its values, some of them ahead of it.
Key:
[1] = test system: HER2 cell surface protein levels; assay: qFACS analysis of cell-surface HER2 levels upon tucatinib treatment; type: cell-based, human; settings: 100 nM tucatinib
Protocol: HER2 cell surface levels were determined by qFACS analysis. Briefly, cells were stained with an anti-HER2 antibody (R&D Systems, Inc.; #MAB1129) and Zombie Aqua (BioLegend, Inc.; #423101) for dead cell exclusion. Cells were fixed, and HER2 receptor copy number per cell was quantified using a QIFIKIT (Agilent Dako) per the manufacturer's protocol.
(§1) The internalization experiments were conducted by detecting an antibody-bound pH sensitive probe using automated time-lapse microscopy. Briefly, breast cancer cell lines SK-BR-3, BT-474, HCC-202, and EFM-192C and gastric cancer cell lines NCI-N87 and OE19 were seeded in 96-well flat clear-bottom black tissue culture-treated microplates (Coming, cat #3603). Cells were plated at 1.5×10^4-2.5×10^4 cells/200 μL/well in growth medium and allowed to adhere overnight at 37° C. Disitamab and isotype control antibody (human IgG) were labeled with IncuCyte Fabfluor-pH Red Antibody Labeling Reagent (Essen Bioscience, cat #4722) according to the manufacturer's protocol. Volumes of the test antibodies, Fabfluor reagent and medium required were calculated at 2× the final assay concentration, and the Fabfluor reagent was added at a molar ratio of 1:3 to the antibody. Antibody and Fabfluor were mixed gently and incubated at 37° C. for 15 minutes. Media containing Fabluor-labeled disitamab ([…] final concentration) with or without tucatinib (100 nM final concentration) was added to cells. The plates were arranged on microplate trays in the IncuCyte SX3 system (Essen Bioscience), and scans were acquired using the Standard protocol. Phase data and red channel data (acquisition time set to 400 ms) were collected, with 4 images per well every 30 minutes for the first 6 hours and every 2 hours after that for up to 72.5 hours with the objective set at 10×. Quantification of fluorescence signal intensity was performed using the IncuCyte software analysis tool. Cell surface HER2 density was quantified using qFACS analysis as described supra.

HER2 [2] = target: T1, HER2 (Homo sapiens, UniProt P04626); assay: Internalization assay of Fabfluor-labeled disitamab with or without tucatinib (IncuCyte); type: cell-based; set-up: endogenous in cells; host or cells: SK-BR-3, BT-474, HCC-202, EFM-192C, NCI-N87, OE19; settings: 100 nM tucatinib
Protocol: as §1
The analysis was refined and tuned per cell line utilizing phase area confluence and manual image selection for preview and training of the algorithm. Upon completion of the analysis, red object integrated intensity (RCU×μm^2/image) data were graphed using GraphPad Prism. The experiment was performed in duplicate (technical replicates) for two biological replicates.

HER2 [3] = target: T1, HER2; assay: Internalization assay of Fabfluor-labeled disitamab compared to trastuzumab (IncuCyte); type: cell-based; set-up: endogenous in cells; host or cells: SK-BR-3, BT-474, HCC-202, EFM-192C, BT-483, CAMA-1, NCI-N87, OE19, RERF-GC-1B
Protocol: The internalization experiments were conducted by detecting an antibody-bound pH sensitive probe using automated time-lapse microscopy. Briefly, breast cancer cell lines SK-BR-3, BT-474, HCC-202, EFM-192C, BT-483, and CAMA-1 and gastric cancer cell lines NCI-N87, OE19, and RERF-GC-1B were seeded in 96-well flat clear-bottom black tissue culture-treated microplates (Corning, cat #3603). Cells were plated at 1.5×10^4-2.5×10^4 cells/200 μL/well in growth medium and allowed to adhere overnight at 37° C. Disitamab, trastuzumab, and isotype control antibody (human IgG) were labeled with IncuCyte Fabfluor-pH Red Antibody Labeling Reagent (Essen Bioscience, cat #4722) according to the manufacturer's protocol. Volumes of the test antibodies, Fabfluor reagent and medium required were calculated at 2× the final assay concentration, and the Fabfluor reagent was added at a molar ratio of 1:3 to the antibody. Fabfluor dye fluoresces only upon exposure to an acidified compartment, namely endocytic vesicles and lysosomes, signifying internalization and intracellular processing of the ADC. Antibody and Fabfluor were mixed gently and incubated at 37° C. for 15 minutes. Media containing Fabfluor-labeled disitamab or trastuzumab ([…] final concentration) was added to cells. The plates were arranged on microplate trays in the IncuCyte SX3 system (Essen Bioscience), and scans were acquired using the Standard protocol. Phase data and red channel data (acquisition time set to 400 ms) were collected, with 4 images per well every 30 minutes for the first 6 hours and every 2 hours after that for up to 40 hours with the objective set at 10×. Quantification of fluorescence signal intensity was performed using the IncuCyte software analysis tool.

[4] = test system: HER2+ locally advanced or metastatic breast cancer (LA/mBC); settings: subjects that progressed following taxane plus trastuzumab treatment; cited from earlier work

Compound: Cc1cc(Nc2ncnc3ccc(NC4=NC(C)(C)CO4)cc23)ccc1Oc1ccn2ncnc2c1 [tucatinib, Tucatinib]
cell-surface HER2 levels over time compared with untreated cells ([1]; BT-474): increase | cell-surface HER2 levels over time compared with untreated cells ([1]; BT-483): increase | cell-surface HER2 levels over time compared with untreated cells ([1]; CAMA-1): increase | cell-surface HER2 levels over time compared with untreated cells ([1]; EFM-192C): increase | cell-surface HER2 levels over time compared with untreated cells ([1]; HCC-202): increase | cell-surface HER2 levels over time compared with untreated cells ([1]; NCI-N87): increase | cell-surface HER2 levels over time compared with untreated cells ([1]; OE19): increase | cell-surface HER2 levels over time compared with untreated cells ([1]; RERF-GC-1B): increase | cell-surface HER2 levels over time compared with untreated cells ([1]; SK-BR-3): increase

disitamab internalization in the presence of tucatinib compared to disitamab alone (HER2 [2]; EFM-192C): increased | disitamab internalization in the presence of tucatinib compared to disitamab alone (HER2 [2]; NCI-N87): increased | disitamab internalization in the presence of tucatinib compared to disitamab alone (HER2 [2]; OE19): increased | disitamab internalization in the presence of tucatinib compared to disitamab alone (HER2 [2]; SK-BR-3): increased | disitamab internalization as compared to trastuzumab (HER2 [3]; BT-474): Increased | disitamab internalization as compared to trastuzumab (HER2 [3]; BT-483): Increased | disitamab internalization as compared to trastuzumab (HER2 [3]; CAMA-1): Increased | disitamab internalization as compared to trastuzumab (HER2 [3]; EFM-192C): Increased | disitamab internalization as compared to trastuzumab (HER2 [3]; HCC-202): Increased | disitamab internalization as compared to trastuzumab (HER2 [3]; NCI-N87): Increased | disitamab internalization as compared to trastuzumab (HER2 [3]; OE19): Increased | disitamab internalization as compared to trastuzumab (HER2 [3]; RERF-GC-1B): Increased | disitamab internalization as compared to trastuzumab (HER2 [3]; SK-BR-3): Increased
Compound: disitamab

Compound: trastuzumab emtansine [T-DM1]
overall response (either complete or partial response) [4]: 34.2% | subjects alive without disease progression at 12 months [4]: 34.1%

Reference: patent US20260248947A1, “Methods of Treating Cancer Using Anti-HER2 Antibody-Drug Conjugates and HER2 Kinase Inhibitors” (Seagen Inc., priority 2023, published 2026)
